B1: Nuclear pore complex protein Nup85 (Homo sapiens), Q9BW27 (parent)
chain: MEELDGEPTVTLIPGVNSKKNQMYFDWGPGEMLVCETSFNKKEKSEMVPSCPFIYIIRKDVDVYSQILRKLFNESHGIFLGLQRIDEELTGKSRKSQLVRVSKNYRSVIRACMEEMHQVAIAAKDPANGRQFSSQVSILSAMELIWNLCEILFIEVAPAGPLLLHLLDWVRLHVCEVDSLSADVLGSENPSKHDSFWNLVTILVLQGRLDEARQMLSKEADASPASAGICRIMGDLMRTMPILSPGNTQTLTELELKWQHWHEECERYLQDSTFATSPHLESLLKIMLGDEAALLEQKELLSNWYHFLVTRLLYSNPTVKPIDLHYYAQSSLDLFLGGESSPEPLDNILLAAFEFDIHQVIKECSIALSNWWFVAHLTDLLDHCKLLQSHNLYFGSNMREFLLLEYASGLFAHPSLWQLGVDYFDYCPELGRVSLELHIERIPLNTEQKALKVLRICEQRQMTEQVRSICKILAMKAVRNNRLGSALSWSIRAKDAAFATLVSDRFLRDYCERGCFSDLDLIDNLGPAMMLSDRLTFLGKYREFHRMYGEKRFADAASLLLSLMTSRIAPRSFWMTLLTDALPLLEQKQVIFSAEQTYELMRCLEDLTSRRPVHGESDTEQLQDDDIETTKVEMLRLSLARNLARAIIREGSLEGS
partner: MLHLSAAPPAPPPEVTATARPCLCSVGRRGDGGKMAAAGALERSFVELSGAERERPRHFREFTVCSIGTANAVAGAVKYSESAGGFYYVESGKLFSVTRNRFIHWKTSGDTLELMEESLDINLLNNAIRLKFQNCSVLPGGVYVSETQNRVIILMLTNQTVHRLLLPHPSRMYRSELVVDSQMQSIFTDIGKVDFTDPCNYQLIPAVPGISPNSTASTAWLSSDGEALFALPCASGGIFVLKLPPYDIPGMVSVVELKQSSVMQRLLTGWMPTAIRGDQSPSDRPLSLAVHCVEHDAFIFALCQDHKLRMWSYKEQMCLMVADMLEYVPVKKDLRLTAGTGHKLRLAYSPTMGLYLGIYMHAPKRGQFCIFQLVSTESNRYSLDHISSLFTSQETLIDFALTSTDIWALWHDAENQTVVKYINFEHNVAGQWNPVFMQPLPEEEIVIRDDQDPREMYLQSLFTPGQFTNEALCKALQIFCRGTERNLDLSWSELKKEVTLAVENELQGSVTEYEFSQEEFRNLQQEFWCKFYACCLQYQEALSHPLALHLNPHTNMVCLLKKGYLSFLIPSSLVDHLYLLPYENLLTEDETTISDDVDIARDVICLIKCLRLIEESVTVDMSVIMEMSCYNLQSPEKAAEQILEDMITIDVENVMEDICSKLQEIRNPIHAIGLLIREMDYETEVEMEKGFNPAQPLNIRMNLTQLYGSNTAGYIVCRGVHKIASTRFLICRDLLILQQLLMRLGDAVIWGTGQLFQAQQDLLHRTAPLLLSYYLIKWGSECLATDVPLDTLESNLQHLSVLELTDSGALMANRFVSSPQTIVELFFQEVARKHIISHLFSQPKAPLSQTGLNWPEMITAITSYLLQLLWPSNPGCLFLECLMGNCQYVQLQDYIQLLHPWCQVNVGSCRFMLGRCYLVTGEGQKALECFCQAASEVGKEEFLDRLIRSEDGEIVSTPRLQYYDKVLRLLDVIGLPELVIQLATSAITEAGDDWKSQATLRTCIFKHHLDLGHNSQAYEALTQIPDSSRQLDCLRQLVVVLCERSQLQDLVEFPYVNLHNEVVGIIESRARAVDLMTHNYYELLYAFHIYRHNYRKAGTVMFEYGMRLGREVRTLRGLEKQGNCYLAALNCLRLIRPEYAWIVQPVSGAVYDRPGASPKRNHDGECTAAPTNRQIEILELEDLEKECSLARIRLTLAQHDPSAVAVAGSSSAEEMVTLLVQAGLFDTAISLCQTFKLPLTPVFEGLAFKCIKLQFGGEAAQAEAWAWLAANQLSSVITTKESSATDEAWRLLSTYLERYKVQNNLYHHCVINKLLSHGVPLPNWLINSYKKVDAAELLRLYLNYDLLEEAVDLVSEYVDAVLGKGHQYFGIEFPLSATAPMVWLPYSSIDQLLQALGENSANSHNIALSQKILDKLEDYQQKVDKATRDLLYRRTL

Variants of: B1
Conditions: with nu160_human NUP160, Q12769

| Variant | effect of a mutation on the interaction |
| --- | --- |
| R645W | decreasing interaction strength |
| A581P | disrupting interaction strength |
| A477V | decreasing interaction strength |

Variants of: B1
Conditions: with nu160_human NUP160, Q12769
Remark: another data set of the same source

| Variant | effect of a mutation on the interaction |
| --- | --- |
| A477V | with no effect |

From IntAct's records for PubMed 30179222
